The conditions of data set [1]: literature value (Nawrocki et al.); cited from earlier work.
The nature of data set [2]: Photophysical properties and fluorescence quantum yields of DFHBI and RNA-DFHBI complexes. Format: physicochemical. To be noted: this work. How it is done:
The absorbance was measured at 448 nm and the fluorescence emission spectra was measured with 448 nm excitation for three different concentrations of the Acridine Yellow standard. The absolute quantum yield of Acridine Yellow was taken to be 0.47 as reported by Olmsted, Journal of Physical Chemistry 1979, 83, 2581-2584. The refractive index (η) was taken as 1.36 for ethanol and 1.333 for water (E. Hecht, Optics (4th edition), 2001). UV absorbance and fluorescence spectra were recorded on a Shimadzu 2501 Spectrophotometer (Shimadzu) or a Quantamaster Master 4 L-format scanning spectrofluorometer (Photon Technologies International) equipped with an LPS-220B 75-W xenon lamp and power supply, A-1010B lamp housing with integrated igniter, switchable 814 photon counting/analog photomultiplier detection unit, and MD5020 motor driver.
Quantum yields for DFHBI or RNA-DFHBI complex were determined by measuring the apparent quantum yields (Φsample.app) as a function of increasing total RNA (Ctotal RNA) at a fixed concentration of total DFHBI (CDFHBI). […] The RNA was renatured in buffer at 70° C. for 3 min and cooled to ambient temperature for 5 min prior to addition to the reaction solution. The DFHBI concentration was fixed at 10 or 20 μM in different replicates. The apparent quantum yield is described using the following equation: […]
Then, the apparent quantum yield is related to the dissociation constant Kd and concentration of DFHBI by the following equation: […]
Thus, the dissociation constants Kd and the quantum yield (Φsample) of RNA-DFHBI complexes were determined by least squares fitting to the above equation in Graphpad Prism software.

Data set [3] deals with T1, protein lysine MTase SET7/9 (Homo sapiens, UniProt Q8WTS6).
T1 construct: purchased New England Biolabs Inc (Ipswich, Mass.)
T1 sequence (Q8WTS6 1-366): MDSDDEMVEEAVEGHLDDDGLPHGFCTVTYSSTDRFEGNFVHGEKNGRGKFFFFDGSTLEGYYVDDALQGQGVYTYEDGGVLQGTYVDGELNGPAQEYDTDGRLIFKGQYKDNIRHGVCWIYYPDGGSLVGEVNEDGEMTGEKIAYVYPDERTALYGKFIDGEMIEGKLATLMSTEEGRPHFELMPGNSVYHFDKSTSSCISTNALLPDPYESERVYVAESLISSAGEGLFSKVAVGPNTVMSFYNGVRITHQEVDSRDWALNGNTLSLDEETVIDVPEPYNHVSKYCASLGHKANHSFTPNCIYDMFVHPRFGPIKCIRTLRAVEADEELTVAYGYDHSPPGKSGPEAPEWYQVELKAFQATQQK
As to the kind of experiment: Protein MTase SET7/9 inhibition assay read out with Aeh1-4 biosensor. Format: biochemical. As for the experimental part:
To initiate the enzyme reaction, 5 μL of H3 peptide substrate (N′-[…]-LAGGKKC-C′) (SEQ ID NO:132) was added to 5 μL of 2×enzyme reaction solution containing SET7/9, SAM, and NEB HMT buffer. Generally, final concentrations are 50 μM H3 peptide, 0.1 U/μL SET7/9, 25 μM SAM, and lx NEB HMT buffer (50 mM Tris, pH 9.0, 5 mM MgCl2, and 4 mM DTT). The reaction solution was incubated at 37° C. for 2 hours to allow the enzyme reaction to proceed.
For the kinetics assay, the reaction conditions are the same as described above except 0.05 U/μL SET7/9 was used, and the enzyme reaction was heat inactivated at different time points. For the inhibition assay, the reaction conditions are the same as described in kinetics assay except varied concentrations of sinefungin was added to the enzyme reaction solution, the reaction solution was incubated at 37° C. for 6 min (see FIG. 16), then heat inactivated by incubation at 65° C. for 15 min. For the inhibition assay shown in FIG. 17, the reaction conditions are the same as described above except 40 μM H3 peptide, 0.1 U/μL SET7/9, 40 μM SAM were used instead.
To initiate the fluorescent biosensor reaction, 10 μL of the enzyme reaction was added to 90 μL of biosensor reaction solution containing renatured RNA, DFHBI, and buffer. […] In vitro fluorescence assays were conducted as described above.

Data set [4] in a line: In vitro fluorescence assays of SAH biosensors (turn-on, ligand selectivity). Format: biochemical. To be noted: for fluorescence in the presence of ATP: 10 mM ATP; for fluorescence response to SAH at low magnesium: 3 mM magnesium; for fluorescence turn-on: 37° C., 10 mM Mg^2+. As for the experimental part: Other conditions, including temperature, concentrations of MgCl2, DFHBI, ligand or RNA, were varied in different experiments and are indicated in the figures. The RNA was renatured in buffer at 70° C. for 3 min and cooled to ambient temperature for 5 min prior to addition to the reaction solution. DFHBI was added to a solution containing buffer and ligand, and then RNA was added at the end before fluorescence measurement. Binding reactions were performed in 100 μL volumes and were incubated at the indicated temperature in a Corning Costar 3915 96-well black plate until equilibrium was reached, which in some cases takes 30 to 60 minutes. The fluorescence emission was measured using a Molecular Devices SpectraMax Paradigm Multi-Mode detection platform plate reader (Sunnyvale, Calif.) with the following instrument parameters: 448 nm excitation, 506 nm emission.

A further data set concerns E. coli BL21* cells. The data set can be described thus: In vivo fluorescence of RNA aptamers by flow cytometry. Format: cell-based. To be noted: 100 μM DFHBI. As for the experimental part:
To compare the fluorescence of Spinach2 and cpSpinach2 in live cells, pET31b plasmids encoding the RNA aptamers in a tRNA scaffold were transformed into E. coli BL21* cells. Following IPTG induction of transcription, cells were incubated with DFHBI and fluorescence was quantitated by flow cytometry. The mean cellular fluorescence was measured as a function of increasing DFHBI concentration in the media, in order to determine the optimal conditions for aptamer fluorescence. Unexpectedly, full saturation of fluorescence was not observed, even when E. coli cells were incubated in media containing up to 800 μM DFHBI (FIG. 5). However, the non-specific fluorescence signal increased when DFHBI concentration exceeded 100 μM. Thus, to balance higher fluorescence activation and lower non-specific background, a concentration of 100 μM was adopted for further experiments. Under these conditions, cellular fluorescence activation for Spinach2 and cpSpinach2 was on average 34 and 22-fold over background, respectively (FIG. 6). Thus, cpSpinach2 is a functional alternative to Spinach2. Although it currently performs slightly poorer in terms of fluorescence activation in live cells, improvements are likely possible through directed mutagenesis for higher thermal stability, improved folding efficiency and less Mg^2+ dependency. […]

The nature of data set [5]: Binding affinity analysis of SAH biosensors. As for the experimental part: The SAH concentration (cSAH) was varied, and the fluorescence of the sample with DFHBI but no RNA was subtracted as background to determine relative fluorescence units. The ratio between the fraction of biosensor that is bound by SAH and the total SAH biosensor concentration is given as:
The dissociation constants Kd were determined by least squares fitting to the following equation in Graphpad Prism software: […]

For data set [6], the system named is E. coli BL21* wild-type and ΔMTAN cells. As to the kind of experiment: Live cell detection of SAH accumulation, wild-type versus MTAN knockout, flow cytometry. Format: cell-based. To be noted: E. coli BL21* MTAN knockout strain 2. As for the experimental part: A Targetron® Gene Knockout System (Sigma-Aldrich) was used to knock out the MTAN gene from E. coli BL21*, following manufacturer protocols.
Preparation of cell samples for flow cytometry was carried out by inoculating 2 mL of auto-induction media/Carb (F. Studier, Protein Expression and Purification 2005, 41, 207-234) with E. coli BL21* cells from colonies grown on an LB/Carb culture plate, containing pET31b plasmids encoding RNA aptamers. […] Cells were then grown aerobically overnight to saturation (0D600 varied from 5 to 10) and diluted to OD600˜0.01-0.05 in M9 minimal media (pH ˜6.0) with 100 μM DFHBI-1T. Cellular fluorescence was measured for 30,000 cells using a Life Technologies Attune N×T Acoustic Focusing Cytometer.

A further data set deals with T2, SET7/9 (Homo sapiens, UniProt Q8WTS6).
T2 construct: purchased New England Biolabs Inc (Ipswich, Mass.)
T2 sequence (Q8WTS6 1-366): T1 sequence (Q8WTS6 1-366)
As to the kind of experiment: High-throughput screening (HTS) assay of SET7/9 activity and inhibition, Z′ score. Format: biochemical. To be noted: 384-well plate, 16 replicates, 300 μM sinefungin. How it is done: For HTS experiments, samples were dispensed into a Grenier 781077 384-well flat bottom black plate using an Eppendorf Repeater […] pipetter to dispense reaction components. Z' scores were calculated from 16 well replicates in the 384-well plate. For the HTS SET7/9 activity assay, 3 μL of H3 peptide or water was added to 9 μL of reaction solution containing SET7/9 MTase, SAM, and NEB HMT Reaction Buffer in each well. Final concentrations are: 0.25 U/10 μL SET7/9, 25 μM SAM, 50 μM H3 peptide and 1×NEB HMT Reaction Buffer (50 mM Tris, pH 9.0, 5 mM MgCl2, and 4 mM DTT). After 30 min incubation at 37° C., to initiate the fluorescent biosensor reaction, 18 μL of biosensor reaction solution containing renatured RNA, DFHBI, and buffer was added to each well. […] In vitro fluorescence assays were conducted as described above. For the HTS SET7/9 inhibition assay, 4.5 μL of sinefungin or water was added to 8 μL of reaction solution containing SET7/9 MTase, and NEB HMT Reaction Buffer in each well. After 15 minutes incubation at 37° C., methylation reaction was initiated by adding 2.5 μL solution containing both SAM and H3 peptide. Final concentrations are: 0.25 U/10 μL SET7/9, 25 μM SAM, 50 μM H3 peptide, 300 μM sinefungin and 1×NEB HMT Reaction Buffer (50 mM Tris, pH 9.0, 5 mM MgCl2, and 4 mM DTT). After 30 min incubation at 37° C., to initiate the fluorescent biosensor reaction, 15 μL of biosensor reaction solution containing renatured RNA, DFHBI, and buffer was added to each well. […] In vitro fluorescence assays were conducted as described above.

The mark [7] stands for this setting: 3 mM magnesium (FIG. 22), read-out: in vitro measured binding affinity for SAH.

Read-outs that look alike come from different tables or passages of the source.

`CC1=N/C(=C\c2cc(F)c(O)c(F)c2)C(=O)N1C` [DFHBI, (Z)-4-(3,5-difluoro-4-hydroxybenzylidene)-1,2-dimethyl-1H-imidazol-5(4H)-one]: in data set [1], the Emission maximum is reported as 489 nm, the “Excitation Maximum” value is 423 nm, the Extinction coefficient was 30100 M^−1- cm^−1 and the Fluorescence quantum yield is listed as 0.0007. In addition, in data set [2], the Emission maximum is given as 502 ± 1 nm, the “Excitation Maximum” value is listed as 428 ± 1 nm and the Extinction coefficient is given as 30018 M^−1- cm^−1. Besides, the Fluorescence quantum yield in data set [2] (30° C., 10 mM MgCl2) is 0.00072 ± 0.00013.

As a reminder, the IC50 is the concentration needed to halve the response being measured. Higher therefore signals weaker potency in that assay. Regarding `Nc1ncnc2c1ncn2[C@@H]1O[C@H](C[C@@H](N)CC[C@H](N)C(=O)O)[C@@H](O)[C@H]1O` [Sinefungin], the IC50 in data set [3] (initial SAM concentration 40 μM) was 42000 ± 16000 nM; in data set [3] (initial SAM concentration of 25 μM) it was 26000 ± 5000 nM.

B1: Spinach2: fluorophore-binding RNA aptamer, SEQ ID NO: 92 (nucleic acid)
chain: GATGTAACTGAATGAAATGGTGAAGGACGGGTCCAGTAGGCTGCTTCGGCAGCCTACTTGTTGAGTAGAGTGTGAGCTCCGTAACTAGTTACATC
modifications: expressed or natural sequence
For the molecule B1, the “fluorescence in the presence of ATP” value in data set [4] is on record as “showed the same effect”. Moreover, in the data set with E. coli BL21* cells, the “cellular fluorescence activation over background” value is recorded as 34 fold.

B2: Mpe1-5: SAH biosensor, SEQ ID NO: 39 (nucleic acid)
chain: ACTTTCGAGGAGCGTTGCAACTCCCTTGTTGAGTAGAGTGTGAGCTCCGTAACTAGTTACATCGCAAGATGTAACTGAATGAAATGGTGAAGGACGGGTCCAGGGAGCCAGGCTCGAAAGTCATCCCCCGATGCAACGGCGCTCACCCGCA
As for B2, the “fluorescence response to SAM” value in data set [4] (10 μM of SAM) was “slight response to SAM”. In data set [4], the “fluorescence response to SAH at low magnesium” value is given as “high fluorescence response to SAH”, the “fluorescence in the presence of ATP” value is listed as “lower fluorescence” and the fluorescence turn-on is reported as around 4 fold. The Kd in data set [5] (setting [7]) came to 19 nM. In addition, the Kd in data set [5] (10 mM Mg^2+, 37° C., read-out: Kd for SAH) is 75 ± 7 nM. The “fold change in fluorescence between wild-type and MTAN knockout strain 2” value in data set [6] worked out at 2.0 ×.

B3: Nmo1-4: SAH biosensor, SEQ ID NO: 65 (Table 2 prints 64) (nucleic acid)
chain: CTCGCCGAGGAGCGCTGCAACAGGTTGTTGAGTAGAGTGTGAGCTCCGTAACTAGTTACATCGCAAGATGTAACTGAATGAAATGGTGAAGGACGGGTCCACCTGCCAGGCTCGGCGATTATCGGGACCTTTAAACCAACGGCGCTCGGTTCAG
As to B3, the “Z′ score, inhibitor screen” value with SET7/9 came out at 0.75. For the same molecule, in data set [4], the “fluorescence response to SAH at low magnesium” value is reported as “high fluorescence response to SAH” and the fluorescence turn-on is around 9 fold. The Kd in data set [5] (setting [7]) worked out at 750 nM. In addition, the “fold change in fluorescence between wild-type and MTAN knockout strain 2” value in data set [6] worked out at 4.8 ×.

The record behind these values is patent US20180267027A1, “FLUORESCENT BIOSENSOR FOR […] ASSAY” (The Regents of the University of California, priority 2015, published 2018).
